Data as given in article doi:10.1101/2025.09.16.676506 (bioRxiv, 2025).
Like-named read-outs stand apart in the source and are kept apart here.

What was measured:
Test in all cases: cryo-EM structure
cryo-EM structure = biological target: the molecule itself
[1] = biological target: T1, TatC with a C-terminal 3XFLAG tag (E. coli), P69423; settings: remark: other sources report otherwise
T1 chain: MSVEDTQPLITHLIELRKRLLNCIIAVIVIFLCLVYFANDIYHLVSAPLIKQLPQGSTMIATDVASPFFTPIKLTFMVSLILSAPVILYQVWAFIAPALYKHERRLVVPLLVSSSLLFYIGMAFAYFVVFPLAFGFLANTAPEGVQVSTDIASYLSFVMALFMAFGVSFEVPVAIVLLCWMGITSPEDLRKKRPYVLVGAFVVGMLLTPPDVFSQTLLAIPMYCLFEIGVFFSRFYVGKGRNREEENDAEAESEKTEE

TatB3C3 complex [2] = biological target: T2, TatB3C3 complex (E. coli, UniProt P69425;P69423)
T2 sequence 1: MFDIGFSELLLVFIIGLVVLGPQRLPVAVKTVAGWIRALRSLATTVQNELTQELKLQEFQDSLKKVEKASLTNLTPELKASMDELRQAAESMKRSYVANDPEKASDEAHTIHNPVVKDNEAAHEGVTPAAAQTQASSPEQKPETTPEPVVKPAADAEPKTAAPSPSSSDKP
T2 sequence 2: T1 chain

TatB3C3 complex [3] = biological target: T2, TatB3C3 complex; remark: listed apart in the source

B1: TatB (natural protein)
chain: T2 sequence 1
Question: With B1 as the binder, how does the “stoichiometry N” value (cryo-EM structure) read?
Answer: 3

B2: TatC with a C-terminal 3XFLAG tag, P69423 1-258 (natural protein)
chain: T1 chain
Question: How did the stoichiometry N [1] turn out when B2 was run?
Answer: 3

B3: SufI–8×His (natural protein)
chain: MSLSRRQFIQASGIALCAGAVPLKASAAGQQQPLPVPPLLESRRGQPLFMTVQRAHWSFTPGTRASVWGINGRYLGPTIRVWKGDDVKLIYSNRLTENVSMTVAGLQVPGPLMGGPARMMSPNADWAPVLPIRQNAATLWYHANTPNRTAQQVYNGLAGMWLVEDEVSKSLPIPNHYGVDDFPVIIQDKRLDNFGTPEYNEPGSGGFVGDTLLVNGVQSPYVEVSRGWVRLRLLNASNSRRYQLQMNDGRPLHVISGDQGFLPAPVSVKQLSLAPGERREILVDMSNGDEVSITCGEAASIVDRIRGFFEPSSILVSTLVLTLRPTGLLPLVTDSLPMRLLPTEIMAGSPIRSRDISLGDDPGINGQLWDVNRIDVTAQQGTWERWTVRADEPQAFHIEGVMFQIRNVNGAMPFPEDRGWKDTVWVDGQVELLVYFGQPSWAHFPFYFNSQTLEMADRGSIGQLLVNPVP
Question: For B3, which “stoichiometry N” value (TatB3C3 complex [2]) is on record?
Answer: 1

Question: And the “stoichiometry N” value (TatB3C3 complex [3])?
Answer: 2
